What was measured:
[1] = target: full-length murine NKG2D on cells (murine) (UniProt O54709); test: flow cytometry on stable mNKG2D transfectant HEK293 cells, isotype control
[2] = target: soluble form of murine NKG2D representing residues 88-232, N'-FLAG tagged (murine) (UniProt O54709); test: ELISA, mNKG2D immobilized on plate, goat anti-mouse F(ab')2-HRP detection
[3] = target: full-length murine NKG2D on cells (murine) (UniProt O54709); test: flow cytometry on stable mNKG2D transfectant HEK293 cells
[4] = target: human NKG2D on CHO transfectant cells (human) (UniProt P26718); test: flow cytometry on human NKG2D-CHO transfectant cells
[5] = target: full-length murine NKG2D on cells (murine) (UniProt O54709); test: cell-based or functional assay
[6] = target: murine FcγRIII on cells (murine) (UniProt P08508); test: cell-based or functional assay
[7] = target: full-length murine NKG2D on cells (murine) (UniProt O54709); test: flow cytometry on NK cells from mouse splenocytes, biotinylated antibody and streptavidin

Chain of UniProt P26718 (P26718 whole entry): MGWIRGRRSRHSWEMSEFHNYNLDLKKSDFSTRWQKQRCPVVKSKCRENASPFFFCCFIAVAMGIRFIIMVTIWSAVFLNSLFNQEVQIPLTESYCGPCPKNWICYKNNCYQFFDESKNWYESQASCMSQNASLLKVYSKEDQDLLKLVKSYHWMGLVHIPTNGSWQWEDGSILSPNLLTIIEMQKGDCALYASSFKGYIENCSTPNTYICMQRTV
Chain of UniProt P08508 (P08508 31-261): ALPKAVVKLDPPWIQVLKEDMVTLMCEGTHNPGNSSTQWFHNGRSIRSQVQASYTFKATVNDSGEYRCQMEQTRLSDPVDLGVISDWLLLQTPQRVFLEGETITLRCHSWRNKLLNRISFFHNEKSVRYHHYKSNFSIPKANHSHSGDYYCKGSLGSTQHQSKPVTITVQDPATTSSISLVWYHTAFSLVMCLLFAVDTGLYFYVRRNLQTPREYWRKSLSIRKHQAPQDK

## mouse IgG2a control antibody
[1]
  MFI: 4 MFI

## Anti-HER2-MicB fusion antibody (from UniProt Q29980 16-297)
[2]
  EC50: 0.3 nM
[3]
  MFI: 11 MFI
[4]
  MFI: 61.7 MFI
[5]
  killing of BT474 cells by splenic NK cells of murine FcγRIII knockout mice, E:T ratio 20:1: 10%

## Anti-HER2 (4D5 mIgG2a) (antibody)
[6]
  killing of BT474 cells by murine DX5+ NK cells (lactate dehydrogenase release), E:T ratio of 50:1, 6.7 nM antibody: 15%

## Anti-HER2*-MicB fusion antibody (D265A + N297A) (from UniProt Q29980 16-297)
[2]
  EC50: 0.3 nM
[3]
  MFI: 11 MFI
[4]
  MFI: 61.7 MFI
[5]
  killing of BT474 cells by murine DX5+ NK cells (lactate dehydrogenase release), E:T ratio of 50:1, 6.7 nM antibody: 15%

## Anti-HER2-H60 fusion antibody
[2]
  EC50: 0.2 nM
[3]
  MFI: 100 MFI
[5]
  killing of BT474 cells by splenic NK cells of murine FcγRIII knockout mice, E:T ratio 20:1: 10%
[7]
  MFI: 48.9 MFI
